A short description of this data set: soluble on expression in E. coli; label from the status in PepcDB or PDB records.
Turning to “MGSDKIHHHHHHMKNTPIERNVIDETINEFQIVDFSKATIREVKAIASKAEAVSGVEFIKMEMGVPGLPASAVGVKAEIEALQNGIASLYPDINGLPELKKEASDFIKAFINVDLSPEGCVPVTGSMQGTFASFLTCSQCDEKKDTILFIDPGFPVQKQQLVVMGQKYETFDVYDYRGDKLKEKLESYLRKGNISAIIYSNPNNPSWICLKDEELRIIGELATQYDVIVLEDLAYFAMDFRQDLSTPYQAPFQPSVAHYTDNYVLLISGSKAFSYAGQRIGVSCISDKLYHRSYPGLTKRYGGGTFGTVFIHRVLYALSSGTSHSAQYAMAAMLKAANEGQYNFLSEVKVYGDRAQKLKEIFLRHGFYLVYDNDLGDPIADGFYFTIGYPGMTSGELAKELMYYGVSAISLVTTGSHQEGLRACTSFIKDHQYAQLDERMKLFAEHHPIA”, the “soluble on expression in E. coli” value was “not soluble”. Turning to “MGSDKIHHHHHHMQLPNLQSATLLRRYKRFLADVELNNGEILTLHCANTGAMTGCGEKGDTVWFSTSDSKTRKYPHSWELTQLKNGQTVCINTHRSNQLTLEALQNKIITELAEYDEILPEVKYGVENSRIDFLLKGKNLPDCYVEVKSVTFVKNHLGLFPDAVTTRGQKHLRELIAMKKRGHRAVVFFAGLHDGFNRFTVAKSIDPDYAELLQQAVKEGVEVYSYAVKFDFSHQKPTALYLTNLVNYLE”, the “soluble on expression in E. coli” value is on record as “not soluble”. As for “MAHHHHHHMDPKEFVQRFPKSALSAKLVLSLEITEQRDFVVSLIDDAVYCDSWEAYFDFAERNNVAITEDVALAAVQAVGLDPLSAPLWVRAAACCESVESRKSLYEFGLSVPLHGWQRLFEEYRRCTDGHEDDHVLSETECWCVSNVLTAEKWPDRYAKLDTDTEAENVRQAWLELFACMLAGLASTAIARDLQLRRMELAMRQMCTQLPGDDSCWYQLALFQLCILEDAEAARKTVACGIAAAGSSFALENIASVADGVVGVSDSSGTSSADVLSATKALMQQRRAAEELALDGVTKDRVRALRSVGKAAAQQGLGDWKIFSQWRCAEDMAAHDTKMAAKVLENGMICCSHSPADALLLGSEAAQYHLLQRHEREALGYAEQQIEQQAELHHRGKILASWNSLVRIENLLGLSFSKAAKRRAELFPQNRISTFMENCRVGDYLPCDKSTFQWARFVEDYQVDKASVEETPFHGIAPPRNEAVAVKRLQQVECETPDDSQWEPFVPPLSCLPSREEENPDDVTGVRELRGKLVYRVKMDARTAARCQREKATRQRSMTGEKAVERGGALGALVRRVRPVNLTVGQTKRLQSVSADWVVHVLTVSELDLERTLKERAERQESHDMSV”, the “soluble on expression in E. coli” value is “not soluble”.

Regarding “MKRQLILEDGTVLIGTGFGGEIEKSGEVVFTTGMTGYQETLSDPSYCGQIVTFTYPLIGNYGINRDDFESIHPSVNGLIVNEICDHPSNFRNEISLNDYLKERNIPGLAGIDTRKLTRKIRQYGTLRGRLCNMDADVEYIVSQLKATVFTDHVKRVSTKDPYPSPGRGHRVVLVDFGMKHGILRELNKRDCDVIVVPYNTTAEEILRLSPDGIMLSNGPGDPKDVPEAIEMLKDIIGKVPLFGICLGHQLFALASGANTSKLKFGHRGLNHPVKNIATGKVAITSQNHGYAVEEESVENTELEITHVALNDGTVEGLRHKKFPAFTVQYHPEASAGPEDANDLFEDFLTMIENFKKEGEELCQNA”, the “soluble on expression in E. coli” value is listed as “not soluble”. As to “GPLGSEWYYGNVTRHQAECALNERGVEGDFLIRDSESSPSDFSVSLKASGKNKHFKVQLVDNVYCIGQRRFHTMDELVEHYKKAPIFTSEHGEKLYLVRALQ”, the “soluble on expression in E. coli” value is listed as “soluble”. Take “MAVKVKKILISQPQPVAGRSPYYDIAQKHGCEVVFRPFIQVESVSAREFRNQKVNILDHSAIIFTARTAIDHFFSLCEELRVTVPETMKYFCVSESVAVYLQKHIVYRKRKIFFGATGKLEDLLTVISKHNKETYFVPLAEEHKHDLLDMLTAKKVSFSPAIMYRTVSNDFGPDEALDHDMILFFSPSGITALLKNFPKFEQGKTKIGAFGPTTAKAVEEAGLRLDLSAPTEQYPSMAMALEDYLNGK”: the “soluble on expression in E. coli” value is “not soluble”.

As to “GDTHEFHKLLIKVVDLFLEDRIKEFEMKLNTTLDELEFEELIGKPDSSNSAENNGIFIDEYSYDASENAMKKLFVEYVRQPEFKYTVLSIKGVNDWVRE”, the “soluble on expression in E. coli” value was “soluble”. For the sequence “MAGDPMETLLIQQTEKSNKFWKIVVKEKDYVVFYGKIGTAGSVKAKEFETEEECMNEANKLVASKRKKGYIDPLPGEDYIKEKTITEEEFWELLHRAKTKGEDQEEQIEWLTSHLAKRTVHEIVAFDTHMHSLLKDSYTSRLWAAAYIIMGGCSDDTFDYFRGWLLYQGKETYEACIEDPERLIPVLENLSEYDVPEIEELSLYFGFTVYAEKTGDEDDTYFTLYHVLSNEEFDDVDFEFDWNEDDEEGLKKVFPRLWEMYGEEPIEWLEHHHHHH”, the “soluble on expression in E. coli” value is recorded as “soluble”. Regarding “MKEGDTMSWQTHTVFNQPAPLNNSNLFLSDGALCEAVSREGAGWDSDLLASIGQQLGTAESLELGRLANAHPPELLRYDPQGQRLDDVRFHPAWHLLMQGLCANRVHNLAWEEEARAGSFVARAARFVLHAQVEAGTLCPVTMTFAATPLLLQMLPATFHDWLAPLRSDRYDSHLLPGGQKRGLLIGMGMTEKQGGSDVLSNTTHAERLADDSYRLVGHKWFFSVPQSDAHLVLAQAKGGLSCFFVPRFLPDGQRNSVRLERLKDKLGNRSNASAEVEFQDAIGWRLGEEGEGIRHILKMGGMTRLDCALGSHGLMRRAFSVAIYHAHQRQAFGKPLIDQPLMRQTLSRMALCLEGQTALLFRLARAWEQRREAKEALWARLFTPAAKFAICKLGIPFVAEAMEVLGGMGYCEESELPRLYREMPVNSIWEGSGNIMCLDVLRVLTKQHGVYDVLSEAFAEVKGQDRHYDRAVRQLQQRLRKPDEAMGREITQQLFLLGCGAEMLRHASPPLAQAWCQMMLDTRGEMPLPAQVQNDLLLRATGGLR”, the “soluble on expression in E. coli” value was “not soluble”. On to “MGHHHHHHSHMVKMEPENKYLPELMAEKDSLDPSFTHAMQLLTAEIEKIQKGDSKKDDEENYLDLFSHKNMKLKERVLIPVKQYPKFNFVGKILGPQGNTIKRLQEETGAKISVLGKGSMRDKAKEEELRKGGDPKYAHLNMDLHVFIEVFGPPCEAYALMAHAMEEVKKFLVPDMMDDICQEQFLELSYLNG”, for which the “soluble on expression in E. coli” value is “soluble”.

“MAGSTLTVKDLHVSIDGKEILKGVNLEVKGGEIHAIMGPNGTGKSTLSSAIMGHPKYEVTEGSIIIDGEDVLEMEVDERAQAGLFLAMQYPSEISGVTNADFLRSAINARREEGDEISLMKFIRKLDKNMEFLEMDPEMAQRYLNEGFSGGEKKRNEILQLMMIEPKIAILDEIDSGLDIDALKVVSKGINEMRGEEFGCLMITHYQRLLNYITPDFVHVMMNGRIVKSGGPELAQRLEAEGYDWIKKELGIEDETTEQEA”: the “soluble on expression in E. coli” value is “not soluble”. The same measure for “KPGAPWWKSAVFYQVYPRSFKDTNGDGIGDFKGLTEKLDYLKGLGIDAIWINPHYASPNTDNGYDISDYREVMKEYGTMEDFDRLMAELKKRGMRLMVDVVINHSSDQHEWFKSSRASKDNPYRDYYFWRDGKDGHEPNNYPSFFGGSAWEKDPVTGQYYLHYFGRQQPDLNWDTPKLREELYAMLRFWLDKGVSGMRFDTVATYSKTPGFPDLTPEQMKNFAEAYTQGPNLHRYLQEMHEKVFDHYDAVTAGEIFGAPLNQVPLFIDSRRKELDMAFTFDLIRYDRALDRWHTIPRTLADFRQTIDKVDAIAGEYGWNTFFLGNHDNPRAVSHFGDDRPQWREASAKALATVTLTQRGTPFIFQGDELGMTNYPFKTLQDFDDIEVKGFFQDYVETGKATAEELLTNVALTSRDNARTPFQWDDSANAGFTTGKPWLKVNPNYTEINAAREIGDPKSVYSFYRNLISIRHETPALSTGSYRDIDPSNADVYAYTRSQDGETYLVVVNFKAEPRSFTLPDGMHIAETLIESSSPAAPAAGAASLELQPWQSGIYKVK”: “soluble”; for “MSLGECPEYGKVKWIGNIYCHKYDEATTTLLSISTGTQSLGQDLKQRQAQLSIAKLTALAAEVQDLEKLNEIQTELDLIDGQILLSQELQESTLNPLFKDFTTYRTLFKYLSDAVKRRESLSVPHMIELFTLLNQDTSYGFALSILAIDHTLPTEVKKYCEYQIWRRCLLSDENAVRQTLRVFFKQQFYHQSIELPIIDNLANEKLITDSYLDGMYHGLTDLNKLASDVKREVALFANSNLDVTMLQSIIGEINEETGNQCVINYATNTIETSPTSEGHHHHHH”: “soluble”; for “MIHTYEEAIGWIHSRLKFGIKPGLERMRWMLEELGNPERHIKCVHLAGTNGKGSTLTYMRYMLEDAKYKVGTFTSPYIETFNERISVNGTPIADEEITELVKMVKPVVEKLDETDLGEATEFEIITVMAICYFGKVNFCDVVLFETGLGGRFDSTNVIHPVLTIITNIGHDHMHILGNTLGEIAYEKAGIIKSGVPVITGVQDEEALQVIQKVAKENRANLYEMGNHFTALHKQSSENGEQFDFTCPFASFEDVRIAMKGSHQVGNAALALMAVMYVKTYLSFLIEEEEIRTGLQEAYWVGRFEKLQSNPDIIIDGAHNPEGIESLVKTVESHYKDKNVIVLFTALGDKQLHNMVGQLETIADEIIFTTFAFDRAISAGELASYAKKESKLVFENWKEAIDTKVEMIGENDVFIITGSLYFISEVRKYIREKN”: “not soluble”. For “GPGSMRLTSRGSHNSSQVVYLLDTREFITDCSTVRQVTHFAHVHRLGSPLWLSCELASALGLTLRYMCSPLNIWSPLTGESFVQLASSPALARDTLYKFPINKEFLAPGGVLPHNSGEGSLMALSAAASSDGKPRWYNIPKDVSHLFVLPKNLCQLSVPVHRGGFRPRPFNLWVSTVIAVRMGGLAEAVKTVRTPSSFMTLVNADQMYPSALLAEKELECVLLMRKEGRLGEM”, the “soluble on expression in E. coli” value is “not soluble”.

Regarding “MGSDKIHHHHHHMADDQEKLLIDEEETVQIKDLNKVTTVNDTDLLLLDDGAASSNAITFKNFLDASKDKIFKGEGLDYFKQIIKSTIAEELAADKDFVEKIYAKITDKLINNDSTNISNLFSKIKSRLTDSISSATLSRSDHLLIMPSSDTIQKTPVPKHILGVPSNLAYGSITRSTTLYPSDYENNAIFINMEDNDDVTLIFSKSYDNSPVYLDIEIQVKINDNRMQKKSLKLQYSDETTYNRVYEIAGPRGLFTRIPIYKGWYVQKRASLYGDPVPDLLKL”, the “soluble on expression in E. coli” value is on record as “not soluble”. As to “MGSDKIHHHHHHMTMQQVLDGTATFMEHLGLNEEPLGVYYSDDKPENAFGPKTGVPISRELEESGKLDMREVMKSFTCVMGSIWLARKKHGAAFISQTEYGCPGGVYYCAMLQPHLRFIEHYVSTGFEGTPLQGERYMPDPDAMRNFILRVAPRKAPARYCIFKPLSLFSAQEKPEFIIFFARPEVLTGLFTQTVFTTGDMDCVASPFGAGCTNILGWPLYYKEKGIEKAVIGGFDPSARKFMKTDELTFTVPLSLYEKMLAALPESMFTHETDWKNVRKKVARSAKAWRVRRPGAKQPPPSTCPITY”, the “soluble on expression in E. coli” value is on record as “not soluble”.

Turning to “MVFCGDDVATGVRDAITYCYRCKGRKVTLSDHEADDDNKPIGDFDYDHEVVVFEIRSRAMEKLRKKRRTGMEGLTYKFVKEYDIENEFCSVRSSFSECCMSDISIEGYMTAKTEFSRSSSLKGLELENQWKMHYVNEIKKGSVIQEFCHCQGWPFGLGRKAALLPPLPKSPAESWSWRKPTRVTPVPFV”, the “soluble on expression in E. coli” value is recorded as “soluble”.

These data come from the DeepSol protein solubility set.
